The source of these data is article PMC12637021, “Talin–tensin3 interactions regulate fibrillar adhesion formation and tensin3 phase separation” (The Journal of Cell Biology, 2025).

“Also recorded” adds a separate entry of the source.

Experiment [1] has as its system NIH3T3 cells. Description: client protein recruitment to tensin3 condensates. In kind it is cell-based, mouse. The settings on record: co-expressed or endogenous. An excerpt:
Since the observed tensin3 condensates were derived from adhesion sites in a talin-regulated mechanosensitive manner, we wondered whether these condensates contain other adhesion components or signaling molecules. To address this question, we examined a selection of cell–matrix adhesion proteins that have been reported by others to be present in LLPS condensates. These proteins include LIMD1 ([Wang et al., 2021]), kindlin2 ([Hsu et al., 2023]), talin ([Hsu et al., 2023]; [Litschel et al., 2024]), KANK ([Guo et al., 2023]), tensin1 ([Lee et al., 2023]), vinculin ([Litschel et al., 2024]), and GIT1 ([Zhu et al., 2020]). We added the actin regulatory RhoGAP DLC1 to this selection, as it is known to bind tensin ([Liao et al., 2006]; [Shih et al., 2015]), and the RNA regulatory protein GIGYF1, which we had previously identified alongside many of the aforementioned proteins in tensin BioID datasets ([Atherton et al., 2022]). We also added stress granule components G3BP1 ([Tourrière et al., […]]) and TDP-43 ([Colombrita et al., 2009]). These proteins were either co-expressed as fluorescently tagged proteins (Fig. S4 I) or, where antibodies were available, probed endogenously in cells that formed GFP-TNS3 condensates (Fig. 8 A).
(§1) Cells were fixed in 4% paraformaldehyde (PFA, Sigma-Aldrich), which had been prewarmed to 37°C for 15 min before being washed three times with PBS. For immunofluorescence staining, cells were permeabilized with 0.5% Triton X-100 (Sigma-Aldrich) at room temperature for 5 min before being washed three times with PBS. Blebbistatin (Tocris Bioscience) was diluted in dimethyl sulfoxide (Sigma-Aldrich) and used at a final concentration of 50 μM. The following primary antibodies were diluted in 1% bovine serum albumin (BSA, Sigma-Aldrich): mouse anti-α5 integrin (SNAKA51, 1:100, NBP2-50146; Novus Biologicals), rat anti-β1 integrin (9EG7, 1:200; 553715; BD Biosciences), mouse anti-FN (IST-9, 1:100, ab6328; Abcam), rabbit anti-tensin3 (1:200, HPA055338; Atlas), mouse anti-EEA1 (1:500, 68065-1-IG; Proteintech), mouse anti-LAMP1 (1:200, ab320851; Abcam), mouse anti-paxillin (349, 1:400, mab3060; Sigma-Aldrich), rabbit anti-talin1 (1:200, 82856-4-RR; Proteintech), mouse anti-vinculin (hVin1, 1:500, V9264; Sigma-Aldrich), rabbit anti-KANK2 (1:100, HPA015643; Sigma-Aldrich), rabbit anti-kindlin2 (1:100, 11453-1-AP; Proteintech), rabbit anti-GIT1 (1:200, 26247-1-AP; Proteintech), mouse anti-phosphotyrosine (4G10, 1:200, 05-321X; Sigma-Aldrich), rabbit anti-G3BP1 (1:600, 13057-2-AP; Proteintech), rabbit anti-TDP43 (1:400, 10782-2-AP; Proteintech), and rabbit anti-GIGYF1 (1:400, ab121784; Abcam). […]

Experiment [2] concerns U2OS TNS3KO cells. Description: adhesion stability under blebbistatin, U2OS TNS3KO cells. The class given is cell-based, human. The settings on record: blebbistatin 50 µM. How it is done: as §1
(§2) Analysis of cell adhesion sites, FN fibrils, and LLPS condensates was performed using FIJI/ImageJ (version 1.54f) software ([Schindelin et al., 2012]). […] Prior to adhesion quantification, the images were background-subtracted using a rolling ball algorithm, followed by thresholding of adhesion sites and Analyse Particles functions in FIJI/ImageJ to quantify adhesions. Adhesion sites with sizes between 0.4 and 10 μm^2 were counted, except for adhesions in blebbistatin-treated cells, which were counted with sizes between 0.2 and 4 μm^2. […]

The test system of a further experiment is β1 integrin, TLNKO cells. Description: β1 integrin activation by flow cytometry, TLNKO cells. The class given is cell-based. As for the experimental part: To measure the level of β1 integrin activation, TLNKO cells were transfected in a 6-well plate for flow cytometry analysis. Cells were collected, washed, and resuspended in ice-cold staining buffer (1% BSA in PBS) before incubation with 9EG7 antibody (diluted 1:200 in staining buffer) for 1 h on ice. The cells were then washed three times with staining buffer. Alexa Fluor Plus 647 goat anti-rat (1:500 dilution in staining buffer, Invitrogen) secondary antibody was used to incubate the cells for 45 min on ice, before being washed twice with staining buffer and once with PBS. The cells were then fixed with 4% PFA for 15 min before a final wash with PBS. Flow cytometry analysis was performed using a Fortessa system (BD Biosciences) and FlowJo software.
On the technique in general: A flow cytometer gives signals particle by particle.

Experiment [3] concerns active β1 integrin, U2OS TNS3KO cells. The experiment in a line: β1 integrin-positive adhesions, U2OS TNS3KO cells. The class given is cell-based, human. Particulars: FN-coated, overnight; 9EG7. How it is done:
(§3) Cells were fixed in 4% paraformaldehyde (PFA, Sigma-Aldrich), which had been prewarmed to 37°C for 15 min before being washed three times with PBS. For immunofluorescence staining, cells were permeabilized with 0.5% Triton X-100 (Sigma-Aldrich) at room temperature for 5 min before being washed three times with PBS. Blebbistatin (Tocris Bioscience) was diluted in dimethyl sulfoxide (Sigma-Aldrich) and used at a final concentration of 50 μM. […]
as §2

Experiment [4] concerns active β1 integrin, TLNKO cells. The experiment in a line: 9EG7-positive (active β1 integrin) adhesions, TLNKO cells. The class given is cell-based. Particulars: co-expressed with GFP-TLN1, vs talin1 and vector control. How it is done:
as §3, §2

In experiment [5] the test system is NIH3T3 cells. Description: tensin3 condensate formation, NIH3T3 cells. The class given is cell-based, mouse. Particulars: n = 181 cells (WT), 168 cells (L702E). As for the experimental part: (§4) To establish a correlation between tensin3 expression and condensation formation, a maximum intensity Z-projection was performed on Z-stack images of NIH3T3 cells (step depth 0.2 μm). The integrated fluorescence intensity was measured by normalizing the mean pixel intensity of each cell to the average of all values in cells expressing mCh-TNS3. To measure the condensate coverage in NIH3T3 cells, the images were background-subtracted (rolling ball) and then thresholded. This was followed by the Analyse Particles function in FIJI/ImageJ to select round condensate structures (circularity 0.7–1.0) ([Bussi et al., 2023]; [Dumelie et al., 2024]) with a size larger than 0.1 μm^2. The same settings were applied to quantify the number of condensates in NIH3T3 and HFF cells.
The percentage of NIH3T3 cells transfected with mCh-TNS3 that form phase-separated condensates was quantified manually in images (610 × 499 μm) acquired with a 20× objective. To quantify the mean radius (R) of the condensates, the area covered by the condensates was divided by the number of condensates for each cell to obtain the mean size (A) of the condensates, followed by the formula of R = √(A/3.14).

In experiment [6] the test system is NIH3T3 cells. Description: adhesion stability under blebbistatin, NIH3T3 cells. In kind it is cell-based, mouse. The settings on record: blebbistatin 50 µM, 60 min; n = 64 (WT), 49 (L702E), 62 (ΔPTB), 71 (Cterm) cells. How it is done:
as §3, §2

The subject of experiment [7] is NIH3T3 cells. Description: condensates on soft vs stiff PDMS, NIH3T3 cells. The class given is cell-based, mouse. The settings on record: 1.5 kPa vs 28 kPa FN-coated PDMS, overnight. How it is done: (§5) Imaging dishes equipped with 40 µm-thick PDMS substrates (1.5 and 28 kPa) were purchased from ibidi. PDMS dishes were coated with 30 μg/ml FN for 1 h, followed by three washes with PBS. Dishes were incubated with DMEM for 10 min to equilibrate before cells were plated and incubated overnight at 37°C.
as §4

In a further experiment the test system is TLNKO cells. The experiment in a line: cell spreading of TLNKO cells. In kind it is cell-based. Particulars: tensin3 expressed alone in TLNKO cells. How it is done:
as §1

For experiment [8], the system named is U2OS TNS3KO cells. Description: α5 integrin-positive FBs, rescue of TNS3KO cells. The class given is cell-based, human. Particulars: FN-coated, overnight; SNAKA51 antibody. As for the experimental part:
as §3, §2

A further experiment concerns HFF cells. The experiment in a line: endogenous tensin3 condensates on soft vs stiff PDMS, HFF cells. The settings on record: 1.5 kPa vs 28 kPa FN-coated PDMS, overnight; n = 33 and 40 cells. The class given is cell-based, human. How it is done: as §5, §4

B1: TNS3-WT: wild-type tensin3 (Homo sapiens), N-terminally labeled with GFP or mCherry, expressed in cells (protein, UniProt Q68CZ2 1-1445, looked up)
chain: MEEGHGLDLTYITERIIAVSFPAGCSEESYLHNLQEVTRMLKSKHGDNYLVLNLSEKRYDLTKLNPKIMDVGWPELHAPPLDKMCTICKAQESWLNSNLQHVVVIHCRGGKGRIGVVISSYMHFTNVSASADQALDRFAMKKFYDDKVSALMQPSQKRYVQFLSGLLSGSVKMNASPLFLHFVILHGTPNFDTGGVCRPFLKLYQAMQPVYTSGIYNVGPENPSRICIVIEPAQLLKGDVMVKCYHKKYRSATRDVIFRLQFHTGAVQGYGLVFGKEDLDNASKDDRFPDYGKVELVFSATPEKIQGSEHLYNDHGVIVDYNTTDPLIRWDSYENLSADGEVLHTQGPVDGSLYAKVRKKSSSDPGIPGGPQAIPATNSPDHSDHTLSVSSDSGHSTASARTDKTEERLAPGTRRGLSAQEKAELDQLLSGFGLEDPGSSLKEMTDARSKYSGTRHVVPAQVHVNGDAALKDRETDILDDEMPHHDLHSVDSLGTLSSSEGPQSAHLGPFTCHKSSQNSLLSDGFGSNVGEDPQGTLVPDLGLGMDGPYERERTFGSREPKQPQPLLRKPSVSAQMQAYGQSSYSTQTWVRQQQMVVAHQYSFAPDGEARLVSRCPADNPGLVQAQPRVPLTPTRGTSSRVAVQRGVGSGPHPPDTQQPSPSKAFKPRFPGDQVVNGAGPELSTGPSPGSPTLDIDQSIEQLNRLILELDPTFEPIPTHMNALGSQANGSVSPDSVGGGLRASSRLPDTGEGPSRATGRQGSSAEQPLGGRLRKLSLGQYDNDAGGQLPFSKCAWGKAGVDYAPNLPPFPSPADVKETMTPGYPQDLDIIDGRILSSKESMCSTPAFPVSPETPYVKTALRHPPFSPPEPPLSSPASQHKGGREPRSCPETLTHAVGMSESPIGPKSTMLRADASSTPSFQQAFASSCTISSNGPGQRRESSSSAERQWVESSPKPMVSLLGSGRPTGSPLSAEFSGTRKDSPVLSCFPPSELQAPFHSHELSLAEPPDSLAPPSSQAFLGFGTAPVGSGLPPEEDLGALLANSHGASPTPSIPLTATGAADNGFLSHNFLTVAPGHSSHHSPGLQGQGVTLPGQPPLPEKKRASEGDRSLGSVSPSSSGFSSPHSGSTISIPFPNVLPDFSKASEAASPLPDSPGDKLVIVKFVQDTSKFWYKADISREQAIAMLKDKEPGSFIVRDSHSFRGAYGLAMKVATPPPSVLQLNKKAGDLANELVRHFLIECTPKGVRLKGCSNEPYFGSLTALVCQHSITPLALPCKLLIPERDPLEEIAESSPQTAANSAAELLKQGAACNVWYLNSVEMESLTGHQAIQKALSITLVQEPPPVSTVVHFKVSAQGITLTDNQRKLFFRRHYPVNSVIFCALDPQDRKWIKDGPSSKVFGFVARKQGSATDNVCHLFAEHDPEQPASAIVNFVSKVMIGSPKKV
modifications: full-length N-terminal GFP or mCherry tag
notes: wild-type tensin3 (Homo sapiens), N-terminally labeled with GFP or mCherry, expressed in cells
On to B1, for which the “proteins detected in condensates” value with NIH3T3 cells [1] was “talin1 and talin2, vinculin, tensin1, and LIMD1, together with the microtubule-targeting protein KANK1 and KANK2, and DLC1 and GIGYF1”. For the same molecule, the “proteins absent from condensates” value in the experiment on NIH3T3 cells [1] (listed as GFP-TNS3) is “kindlin2 and GIT1, which regulate membrane protrusion ([Böttcher et al., 2017]; [Manabe et al., 2002]), were absent; also recorded: negative for G3BP1, TDP-43 (Fig. S4 J), or tyrosine phosphorylation”. For the same molecule, in the experiment with U2OS TNS3KO cells [2], the “subcellular localization of construct under blebbistatin” value was “remained in adhesion structures”. Further, in the experiment on U2OS TNS3KO cells [2] (60 min), the “adhesion stability under actomyosin inhibition” value is recorded as “remained present despite actomyosin inhibition”. In the experiment on β1 integrin, TLNKO cells (co-expressed with GFP-TLN1, vs mCh-vector, triplicate), the “integrin activation, flow cytometry” value is listed as “increased integrin activation”. For the same molecule, the “rescue of integrin activation” value in the experiment with β1 integrin, TLNKO cells (tensin3 expressed alone in TLNKO cells, 9EG7) is “did not rescue cell spreading (Fig. S3 A) or integrin activation”. In addition, in experiment [3], the “rescue of adhesion formation” value was “fully rescued adhesion formation”. In addition, the “fold change in 9EG7-positive adhesion sites” value in [4] is “fivefold increase in adhesion sites”. For the same molecule, the “Spearman's r, expression level vs condensate coverage” value in the experiment with NIH3T3 cells [5] was 0.8773. The “construct-positive adhesions after blebbistatin” value in the experiment with NIH3T3 cells [6] was “largely remain after blebbistatin treatment”. Besides, the “condensates on soft vs stiff substrate” value with NIH3T3 cells [7] is given as “significant twofold increase”. Further, in the experiment with TLNKO cells, the “rescue of cell spreading” value was “did not rescue cell spreading”. Moreover, the α5 integrin-positive adhesions result in the experiment with U2OS TNS3KO cells [8] is “α5 integrin-positive adhesions in the peripheral and central areas of the cells”.

B2: endogenous tensin3: endogenous tensin3 in primary human foreskin fibroblasts (protein, UniProt Q68CZ2 1-1445, looked up)
Tensin-3: B1 chain
For the molecule B2, the “increase in tensin3 spheres on soft vs stiff substrate” value in the experiment on HFF cells was 3.6 fold.
